From US20220056092A1

Biological target: IL12 receptor on bystander (GFP+) T cells (human) (UniProt P42701)
Assay: cell-based or functional assay

Chain of IL12 receptor on bystander (GFP+) T cells (human) (Q99665 24-862, chain 2 of 2, other chains not shown): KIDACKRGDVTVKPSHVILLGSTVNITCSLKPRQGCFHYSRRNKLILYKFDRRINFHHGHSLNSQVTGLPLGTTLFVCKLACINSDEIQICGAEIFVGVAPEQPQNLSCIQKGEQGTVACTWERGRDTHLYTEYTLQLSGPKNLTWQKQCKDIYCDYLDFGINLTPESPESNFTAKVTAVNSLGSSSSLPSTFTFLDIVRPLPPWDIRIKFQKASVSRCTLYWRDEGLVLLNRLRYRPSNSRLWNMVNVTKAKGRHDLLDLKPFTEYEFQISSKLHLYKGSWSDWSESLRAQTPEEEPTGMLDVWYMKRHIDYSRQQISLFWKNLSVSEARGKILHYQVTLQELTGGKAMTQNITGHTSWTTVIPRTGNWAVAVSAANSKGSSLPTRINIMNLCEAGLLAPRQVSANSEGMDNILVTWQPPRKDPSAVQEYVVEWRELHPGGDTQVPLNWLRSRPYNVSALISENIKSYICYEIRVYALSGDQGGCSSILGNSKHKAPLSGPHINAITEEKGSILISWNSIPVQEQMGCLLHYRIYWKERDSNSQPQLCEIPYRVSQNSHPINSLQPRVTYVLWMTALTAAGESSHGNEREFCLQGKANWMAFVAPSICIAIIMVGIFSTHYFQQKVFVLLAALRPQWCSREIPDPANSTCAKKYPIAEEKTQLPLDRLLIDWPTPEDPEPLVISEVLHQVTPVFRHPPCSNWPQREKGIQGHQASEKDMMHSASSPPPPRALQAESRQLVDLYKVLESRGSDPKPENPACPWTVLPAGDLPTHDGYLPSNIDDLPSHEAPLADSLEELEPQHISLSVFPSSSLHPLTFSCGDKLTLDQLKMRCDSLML
Chain of secreted IL12 encoded by OT-001356 (ORF2: p40 signal sequence; p40 (23-328 of WT); Linker ((G4S)3); p35 (57-253 of WT); BamHI (GS)) (ligand) (chain): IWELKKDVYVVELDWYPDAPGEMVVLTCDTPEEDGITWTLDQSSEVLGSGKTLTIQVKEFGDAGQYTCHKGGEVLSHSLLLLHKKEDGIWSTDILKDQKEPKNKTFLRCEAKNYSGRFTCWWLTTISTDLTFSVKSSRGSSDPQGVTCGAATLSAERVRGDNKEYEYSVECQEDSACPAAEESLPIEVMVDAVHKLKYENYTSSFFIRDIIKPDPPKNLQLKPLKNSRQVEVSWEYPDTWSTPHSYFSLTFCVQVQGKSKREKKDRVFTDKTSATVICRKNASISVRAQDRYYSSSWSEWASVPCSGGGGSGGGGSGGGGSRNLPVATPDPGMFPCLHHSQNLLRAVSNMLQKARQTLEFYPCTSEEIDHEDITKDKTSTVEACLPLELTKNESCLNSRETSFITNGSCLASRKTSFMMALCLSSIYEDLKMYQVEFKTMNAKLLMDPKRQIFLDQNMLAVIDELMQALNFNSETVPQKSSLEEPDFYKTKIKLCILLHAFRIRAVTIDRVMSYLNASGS

membrane bound IL12 encoded by OT-001895 (p40 (23-328 of WT); (G4S)3; p35 (57-253 of WT); (GS)15; CD8a Hinge and Transmembrane Domain; GS) (ligand)
Bystander effect (pSTAT4 geometric MFI on GFP+ T cells in 1 hour supernatants), ratio 1.1 (geometric MFI): -136
Bystander effect (pSTAT4 geometric MFI on GFP+ T cells in 1 hour supernatants), ratio 2.1 (geometric MFI): -238
Bystander effect (pSTAT4 geometric MFI on GFP+ T cells in 1 hour supernatants), ratio 4.3 (geometric MFI): -277
Bystander effect (pSTAT4 geometric MFI on GFP+ T cells in 1 hour supernatants), ratio 8.5 (geometric MFI): -1180
Bystander effect (pSTAT4 geometric MFI on GFP+ T cells in 1 hour supernatants), ratio 17.1 (geometric MFI): -3000
Bystander effect (pSTAT4 geometric MFI on GFP+ T cells in 1 hour supernatants), ratio 34.1 (geometric MFI): -3720
Transactivation (pSTAT4 geometric MFI on GFP+ cells in co-culture), ratio 1.1 (geometric MFI): 4500
Transactivation (pSTAT4 geometric MFI on GFP+ cells in co-culture), ratio 2.1 (geometric MFI): 6100
Transactivation (pSTAT4 geometric MFI on GFP+ cells in co-culture), ratio 4.3 (geometric MFI): 7170
Transactivation (pSTAT4 geometric MFI on GFP+ cells in co-culture), ratio 8.5 (geometric MFI): 8200
Transactivation (pSTAT4 geometric MFI on GFP+ cells in co-culture), ratio 17.1 (geometric MFI): 7720
Transactivation (pSTAT4 geometric MFI on GFP+ cells in co-culture); table head says ratio of 64, paragraph 725 gives 34.1 (geometric MFI): 7700

membrane bound IL12 encoded by OT-002011 (B7.1 transmembrane domain and short CD8 hinge domain) (ligand)
Bystander effect (pSTAT4 geometric MFI on GFP+ T cells in 1 hour supernatants), ratio 2.4 (geometric MFI): -642
Bystander effect (pSTAT4 geometric MFI on GFP+ T cells in 1 hour supernatants), ratio 4.7 (geometric MFI): -566
Bystander effect (pSTAT4 geometric MFI on GFP+ T cells in 1 hour supernatants), ratio 9.5 (geometric MFI): -1130
Bystander effect (pSTAT4 geometric MFI on GFP+ T cells in 1 hour supernatants), ratio 18.9 (geometric MFI): -1380
Bystander effect (pSTAT4 geometric MFI on GFP+ T cells in 1 hour supernatants), ratio 37.9 (geometric MFI): -2880
Bystander effect (pSTAT4 geometric MFI on GFP+ T cells in 1 hour supernatants), ratio 75.8 (geometric MFI): -3530
Transactivation (pSTAT4 geometric MFI on GFP+ cells in co-culture), ratio 2.4 (geometric MFI): 5190
Transactivation (pSTAT4 geometric MFI on GFP+ cells in co-culture), ratio 4.7 (geometric MFI): 6680
Transactivation (pSTAT4 geometric MFI on GFP+ cells in co-culture), ratio 9.5 (geometric MFI): 7760
Transactivation (pSTAT4 geometric MFI on GFP+ cells in co-culture), ratio 18.9 (geometric MFI): 8320
Transactivation (pSTAT4 geometric MFI on GFP+ cells in co-culture), ratio 37.9 (geometric MFI): 8030
Transactivation (pSTAT4 geometric MFI on GFP+ cells in co-culture); table head says ratio of 64, paragraph 725 gives 75.8 (geometric MFI): 8090

membrane bound IL12 encoded by OT-002096 (B7.1 TM domain and IgG1 CH2-CH3 domain as a hinge domain) (ligand)
Bystander effect (pSTAT4 geometric MFI on GFP+ T cells in 1 hour supernatants), ratio 2.4 (geometric MFI): 405
Bystander effect (pSTAT4 geometric MFI on GFP+ T cells in 1 hour supernatants), ratio 4.8 (geometric MFI): 1050
Bystander effect (pSTAT4 geometric MFI on GFP+ T cells in 1 hour supernatants), ratio 9.7 (geometric MFI): 1650
Bystander effect (pSTAT4 geometric MFI on GFP+ T cells in 1 hour supernatants), ratio 19.4 (geometric MFI): 1470
Bystander effect (pSTAT4 geometric MFI on GFP+ T cells in 1 hour supernatants), ratio 38.7 (geometric MFI): 1470
Bystander effect (pSTAT4 geometric MFI on GFP+ T cells in 1 hour supernatants), ratio 77.5 (geometric MFI): 955
Transactivation (pSTAT4 geometric MFI on GFP+ cells in co-culture), ratio 2.4 (geometric MFI): 2620
Transactivation (pSTAT4 geometric MFI on GFP+ cells in co-culture), ratio 4.8 (geometric MFI): 3250
Transactivation (pSTAT4 geometric MFI on GFP+ cells in co-culture), ratio 9.7 (geometric MFI): 4030
Transactivation (pSTAT4 geometric MFI on GFP+ cells in co-culture), ratio 19.4 (geometric MFI): 4180
Transactivation (pSTAT4 geometric MFI on GFP+ cells in co-culture), ratio 38.7 (geometric MFI): 4860
Transactivation (pSTAT4 geometric MFI on GFP+ cells in co-culture); table head says ratio of 64, paragraph 725 gives 77.5 (geometric MFI): 5220

membrane bound IL12 encoded by OT-002111 (B7.1 TM domain and B7.1 C2 domain as a hinge domain) (ligand)
Bystander effect (pSTAT4 geometric MFI on GFP+ T cells in 1 hour supernatants), ratio 1.5 (geometric MFI): -59
Bystander effect (pSTAT4 geometric MFI on GFP+ T cells in 1 hour supernatants), ratio 2.9 (geometric MFI): 852
Bystander effect (pSTAT4 geometric MFI on GFP+ T cells in 1 hour supernatants), ratio 5.9 (geometric MFI): 437
Bystander effect (pSTAT4 geometric MFI on GFP+ T cells in 1 hour supernatants), ratio 11.8 (geometric MFI): -58
Bystander effect (pSTAT4 geometric MFI on GFP+ T cells in 1 hour supernatants), ratio 23.6 (geometric MFI): -1010
Bystander effect (pSTAT4 geometric MFI on GFP+ T cells in 1 hour supernatants), ratio 47.1 (geometric MFI): -4240
Transactivation (pSTAT4 geometric MFI on GFP+ cells in co-culture), ratio 1.5 (geometric MFI): 4660
Transactivation (pSTAT4 geometric MFI on GFP+ cells in co-culture), ratio 2.9 (geometric MFI): 6540
Transactivation (pSTAT4 geometric MFI on GFP+ cells in co-culture), ratio 5.9 (geometric MFI): 7210
Transactivation (pSTAT4 geometric MFI on GFP+ cells in co-culture), ratio 11.8 (geometric MFI): 7660
Transactivation (pSTAT4 geometric MFI on GFP+ cells in co-culture), ratio 23.6 (geometric MFI): 7630
Transactivation (pSTAT4 geometric MFI on GFP+ cells in co-culture); table head says ratio of 64, paragraph 725 gives 47.1 (geometric MFI): 5460

membrane bound IL12 encoded by OT-002112 (B7.1 TM domain and FcgammaR2b (Fcgr2b) as a hinge domain) (ligand)
Bystander effect (pSTAT4 geometric MFI on GFP+ T cells in 1 hour supernatants), ratio 1.3 (geometric MFI): -1
Bystander effect (pSTAT4 geometric MFI on GFP+ T cells in 1 hour supernatants), ratio 2.5 (geometric MFI): -818
Bystander effect (pSTAT4 geometric MFI on GFP+ T cells in 1 hour supernatants), ratio 5 (geometric MFI): -232
Bystander effect (pSTAT4 geometric MFI on GFP+ T cells in 1 hour supernatants), ratio 10.1 (geometric MFI): -988
Bystander effect (pSTAT4 geometric MFI on GFP+ T cells in 1 hour supernatants), ratio 20.2 (geometric MFI): -1400
Bystander effect (pSTAT4 geometric MFI on GFP+ T cells in 1 hour supernatants), ratio 40.4 (geometric MFI): -2660
Transactivation (pSTAT4 geometric MFI on GFP+ cells in co-culture), ratio 1.3 (geometric MFI): 5110
Transactivation (pSTAT4 geometric MFI on GFP+ cells in co-culture), ratio 2.5 (geometric MFI): 6070
Transactivation (pSTAT4 geometric MFI on GFP+ cells in co-culture), ratio 5 (geometric MFI): 7760
Transactivation (pSTAT4 geometric MFI on GFP+ cells in co-culture), ratio 10.1 (geometric MFI): 8120
Transactivation (pSTAT4 geometric MFI on GFP+ cells in co-culture), ratio 20.2 (geometric MFI): 8420
Transactivation (pSTAT4 geometric MFI on GFP+ cells in co-culture); table head says ratio of 64, paragraph 725 gives 40.4 (geometric MFI): 8020

secreted IL12 encoded by OT-001356 (ORF2: p40 signal sequence; p40 (23-328 of WT); Linker ((G4S)3); p35 (57-253 of WT); BamHI (GS)) (ligand)
Bystander effect (pSTAT4 geometric MFI on GFP+ T cells in 1 hour supernatants), CAR-IL12+:GFP+ ratio 73.9 (geometric MFI): -2620
Bystander effect (pSTAT4 geometric MFI on GFP+ T cells in 1 hour supernatants), ratio 2.3 (geometric MFI): -1090
Bystander effect (pSTAT4 geometric MFI on GFP+ T cells in 1 hour supernatants), ratio 4.6 (geometric MFI): -518
Bystander effect (pSTAT4 geometric MFI on GFP+ T cells in 1 hour supernatants), ratio 9.2 (geometric MFI): -86
Bystander effect (pSTAT4 geometric MFI on GFP+ T cells in 1 hour supernatants), ratio 18.5 (geometric MFI): -226
Bystander effect (pSTAT4 geometric MFI on GFP+ T cells in 1 hour supernatants), ratio 37 (geometric MFI): -1400
Transactivation (pSTAT4 geometric MFI on GFP+ cells in co-culture), ratio 2.3 (geometric MFI): 2840
Transactivation (pSTAT4 geometric MFI on GFP+ cells in co-culture), ratio 4.6 (geometric MFI): 4370
Transactivation (pSTAT4 geometric MFI on GFP+ cells in co-culture), ratio 9.2 (geometric MFI): 5570
Transactivation (pSTAT4 geometric MFI on GFP+ cells in co-culture), ratio 18.5 (geometric MFI): 6420
Transactivation (pSTAT4 geometric MFI on GFP+ cells in co-culture), ratio 37 (geometric MFI): 6940
Transactivation (pSTAT4 geometric MFI on GFP+ cells in co-culture); table head says CAR-IL12+:GFP+ ratio of 64, paragraph 725 gives 73.9 (geometric MFI): 6450
